Here are results for two proteins from PMC6515686, “Characterization of two flavonol synthases with iron-independent flavanone 3-hydroxylase activity from Ornithogalum caudatum Jacq” (BMC Plant Biology, 2019).

What all share (experiment): HPLC, Lineweaver-Burk
Assay type in all cases: biochemical, Albuca bracteata

Substrate in series [1]: O=C1C[C@@H](c2ccc(O)cc2)Oc2cc(O)cc(O)c21
The following applies: F3H activity, apparent Km, 2-oxoglutarate, Fe2+, ascorbate, pH 6.0, 20 °C. The text has this: (§1) HPLC, Lineweaver-Burk on OcFLS1

Substrate in series [2]: O=C1c2c(O)cc(O)cc2O[C@H](c2ccc(O)cc2)[C@H]1O
The conditions noted are these: FLS activity, apparent Km, 2-oxoglutarate, Fe2+, ascorbate, pH 6.0, 20 °C.
Excerpt: as §1

Substrate in series [3]: O=C1C[C@@H](c2ccc(O)cc2)Oc2cc(O)cc(O)c21
The conditions noted are these: F3H activity, apparent Km, 2-oxoglutarate, Fe2+, ascorbate, pH 6.0, 20 °C. The text has this: (§2) HPLC, Lineweaver-Burk on OcFLS2
The source holds these as a separate data set.

Substrate in series [4]: O=C1c2c(O)cc(O)cc2O[C@H](c2ccc(O)cc2)[C@H]1O
The following applies: FLS activity, apparent Km, 2-oxoglutarate, Fe2+, ascorbate, pH 6.0, 20 °C.
Excerpt: as §2
This is another data set of the same source.

B1: OcFLS1 (Albuca bracteata) (protein)
chain: MEVERVQAIASMTASLGTIPAEFIRSEHERPDITTYHGPVPDIPVVDLSATDRAGVTKAIAEAAQEWGIFQVVNHRVPIEAIKELQRVGKEFFELPQEEKEAYATVPDSGSFEGYGTRLQKDLEGKKAWVDYLFHNVWPQSKITYRFWPNNPPEYRKANEEYAKYLQGVVDEMLTSLSLGLGLESHVLKEAVGGDELEYLLKINYYPPCPRPDLALGVVAHTDMSAITILVPNEVPGLQVFKDDHWFDAKYIPNALIVHIGDQIEILSNGKYKSVLHRTTVNKEKARMSWPVFCSPPGEMIVGPLPQLVSDENSAKFKTKKYKDYSYCKINKLPQ
In the case of B1, in “HPLC, Lineweaver-Burk [1]”, the Km was 37.57 ± 6.316 µM and the Vmax was 2.05 µM/min. For the same protein, in the series “HPLC, Lineweaver-Burk [2]”, the Km was 471.3 ± 179 µM and the maximal velocity (Vmax) amounted to 12.9 µM/min.

B2: OcFLS2 (Albuca bracteata) (protein)
chain: MEVERVQAIASMTASLGTIPAEFIRSEHERPDITTYHGPVPDIPVIDLSDTDRAAVAKAIADAAQEWGIFQVVNHGIPVEAIKELQRVGKGFFELPQEEKEAYATVPDSGSFEGYGTKLQKDLGGKKAWVDYLFHNVWPESKINYRFWPNNPPEYRKANEEYAKYLQEVVDEMLSSLSVGLGLEGHVLKEAVGGDELEYLLKINYYPPCPRPDLALGVVAHTDMSAITILVPNEVPGLQVFKDDHWFDAKYIPNALIVHIGDQIEILSNGKYKSVLHRTTVNKEKARMSWPVFCSPPGEMIVGPLPQLVSDENPAKFKTKKYKEYSYCKINKLPQ
In the case of B2, the Km in the series “HPLC, Lineweaver-Burk [3]” turned out to be 110.5 ± 20.86 µM; in “HPLC, Lineweaver-Burk [4]” it was 525.7 ± 198.4 µM. The Vmax in “HPLC, Lineweaver-Burk [3]” was 5.82 µM/min; in the series “HPLC, Lineweaver-Burk [4]” it was 15.1 µM/min.
